In article PMC10471779 (2023):
Numbering of substitutions follows the chain as printed. Blank lines part the entries; values can stand above or below the binder they belong to.

Assays:
Assay in all cases: SPR
[1] = target: recombinant cynomolgus galectin-3 (cynomolgus)
[2] = target: T1, recombinant rat galectin-3 (rat, UniProt P08699 1-262)
T1 chain: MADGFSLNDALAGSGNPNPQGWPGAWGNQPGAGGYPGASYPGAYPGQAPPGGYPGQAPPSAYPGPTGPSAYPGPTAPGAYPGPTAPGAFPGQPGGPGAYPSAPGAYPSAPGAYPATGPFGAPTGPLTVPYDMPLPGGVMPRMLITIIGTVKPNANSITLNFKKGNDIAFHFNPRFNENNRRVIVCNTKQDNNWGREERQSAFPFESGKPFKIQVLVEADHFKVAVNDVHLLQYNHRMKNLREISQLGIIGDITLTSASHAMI

[3] = target: T2, recombinant mouse galectin-3, full length, His-tagged (mGal-3-FL-His Nter) (mouse, UniProt P16110 1-264)
T2 chain: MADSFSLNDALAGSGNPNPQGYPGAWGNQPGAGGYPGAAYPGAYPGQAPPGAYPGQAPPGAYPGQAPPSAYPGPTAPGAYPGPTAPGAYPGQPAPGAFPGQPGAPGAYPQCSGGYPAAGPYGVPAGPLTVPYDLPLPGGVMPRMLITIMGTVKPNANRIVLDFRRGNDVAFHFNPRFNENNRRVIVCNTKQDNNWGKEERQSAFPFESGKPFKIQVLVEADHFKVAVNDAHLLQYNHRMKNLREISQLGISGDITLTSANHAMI

Kd [1]: 11.4 nM
Kd [2]: 8.6 nM
B1: D11 anti-Gal-3 monoclonal antibody (hIgG1 format, LALA) (antibody, V domains shown)
VH: EVQLVESGGSLVKPGGSLRLSCAASGFTFSNYNMNWVRQAPGKGLEWISSIYGSSRYIYYADFVKGRFTISRDNAKNSLYLQMNSLRAEDTAVYYCVRSSYGGMDVWGRGTLVTVSS
VL: QSVLTQPASVSGSPGQSITISCAGTSSDVGGSYNVAWYQQHPGKAPKLMIYYDSYRPSGVSNRFSGSKSGNTASLTISGLQAEDEADYYCSSYTGYSTRVFGGGTKLEIK

Kd [1]: 7.1 nM
Kd [3]: 4.1 nM
B2: E07 anti-Gal-3 monoclonal antibody (hIgG1 format, LALA) (antibody, V domains shown)
VH: B1 VH with S50N, S100Y
VL: B1 VL with S32Y, N34S, A36S, Y55N
